The data set deals with the molecule itself. Briefly: SEC. On the technique in general: In gel filtration, larger molecules generally elute earlier.

In general, stoichiometry N refers to a count of units in the complex or per binding partner.

B1: 17X-PTDH-R301A (phosphite dehydrogenase from Pseudomonas stutzeri WM88, 17X background, Arg301Ala) (enzyme, UniProt O69054 1-336, looked up)
chain: MLPKLVITHRVHEEILQLLAPHCELITNQTDSTLTREEILRRCRDAQAMMAFMPDRVDADFLQACPELRVIGCALKGFDNFDVDACTARGVWLTFVPDLLTVPTAELAIGLAVGLGRHLRAADAFVRSGKFRGWQPRFYGTGLDNATVGFLGMGAIGLAMADRLQGWGATLQYHAAKALDTQTEQRLGLRQVACSELFASSDFILLALPLNADTLHLVNAELLALVRPGALLVNPCRGSVVDEAAVLAALERGQLGGYAADVFEMEDWARADRPQQIDPALLAHPNTLFTPHIGSAVRAVALEIERCAAQNILQALAGERPINAVNRLPKANPAAD
Take B1: the “stoichiometry N” value turned out to be 2.

B2: 17X-PTDH (thermostable phosphite dehydrogenase mutant TS-PTDH with the additional E175A mutation) (enzyme, Pseudomonas stutzeri WM88, UniProt O69054 1-336, looked up)
chain: MLPKLVITHRVHEEILQLLAPHCELITNQTDSTLTREEILRRCRDAQAMMAFMPDRVDADFLQACPELRVIGCALKGFDNFDVDACTARGVWLTFVPDLLTVPTAELAIGLAVGLGRHLRAADAFVRSGKFRGWQPRFYGTGLDNATVGFLGMGAIGLAMADRLQGWGATLQYHAAKALDTQTEQRLGLRQVACSELFASSDFILLALPLNADTLHLVNAELLALVRPGALLVNPCRGSVVDEAAVLAALERGQLGGYAADVFEMEDWARADRPQQIDPALLAHPNTLFTPHIGSAVRAVRLEIERCAAQNILQALAGERPINAVNRLPKANPAAD
With B2, the binding result is given as “binds”.

Source of the values: article PMC3361975 (Biochemistry, 2012).
